# Laboratory results published in publication PMC7311561.
# Legend:
# [1] = target: cathepsin L from human (human)
# [2] = target: cathepsin B from human (human)
# [3] = target: papain from Carica papaya (Carica papaya) (UniProt P00784)
# Sequence of papain from Carica papaya (Carica papaya) (P00784 134-345): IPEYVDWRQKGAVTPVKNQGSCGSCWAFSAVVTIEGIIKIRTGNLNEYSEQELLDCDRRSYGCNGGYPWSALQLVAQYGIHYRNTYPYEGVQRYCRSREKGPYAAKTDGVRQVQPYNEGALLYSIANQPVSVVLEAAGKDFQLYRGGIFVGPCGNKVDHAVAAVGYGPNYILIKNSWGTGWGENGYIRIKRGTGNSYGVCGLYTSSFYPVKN
substance,measurement,setting,value
TK-cystatin (secretory cystatin from Thelohanellus kitauei) (natural protein),"IC50 of inhibition of cathepsin L activity (0.026 μmol/L cathepsin L, fluorogenic substrate Z-Phe-Arg-AMC, pH 5.5, increasing TK-cystatin)",[1],0.175 μmol/L
same,"IC50 of inhibition of cathepsin B activity (0.026 μmol/L cathepsin B, fluorogenic substrate Z-Arg-Arg-AMC, pH 5.5, increasing TK-cystatin)",[2],2.1 μmol/L
same,"IC50 of inhibition of papain activity (0.15 μmol/L papain, fluorogenic substrate Z-Phe-Arg-AMC, pH 5.5, increasing TK-cystatin)",[3],0.8 μmol/L
